Measured values taken from IntAct's records for PubMed 21866104.

B1: Golgi to ER traffic protein 1 (Saccharomyces cerevisiae), P53192 (parent)
chain: MHWAAAVAIFFIVVTKFLQYTNKYHEKWISKFAPGNELSKKYLAKVKERHELKEFNNSISAQDNYAKWTKNNRKLDSLDKEINNLKDEIQSENKAFQAHLHKLRLLALTVPFFVFKIMYGKTPVYKLSSSTSTLFPTFVSGVWSQGWLYVLLHPLRTISQKWHIMEGKFGASKFDDMALQSVSLGIWVWALMNVINGVEFIVKQLFLTPKMEAPASVETQEEKALDAVDDAIILD
partner: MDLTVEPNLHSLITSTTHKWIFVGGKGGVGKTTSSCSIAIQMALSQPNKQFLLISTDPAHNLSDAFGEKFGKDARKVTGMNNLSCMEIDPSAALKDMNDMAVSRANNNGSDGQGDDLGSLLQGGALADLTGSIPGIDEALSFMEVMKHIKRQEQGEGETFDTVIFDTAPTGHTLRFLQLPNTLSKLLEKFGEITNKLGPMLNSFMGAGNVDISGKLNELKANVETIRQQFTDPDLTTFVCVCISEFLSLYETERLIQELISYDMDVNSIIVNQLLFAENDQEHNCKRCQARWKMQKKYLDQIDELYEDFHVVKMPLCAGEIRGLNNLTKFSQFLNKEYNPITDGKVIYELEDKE
B2: Golgi to ER traffic protein 2 (Saccharomyces cerevisiae), P40056 (parent)
chain: MSELTEAEKRRLLRERRQKKFSNGGASSRLNKITGQASSHLNAESPLDAPSAAKTTPPASVHSATPDIKEDSNVAPQLDLLKQLAAMQGQGTGKSTPQDSSTPDLLSLLSSMNTGMPSAEGTPSFGQAAPAAPINQAALDYHDYLLNRLKAWTILVKWVFFLLPYLYLITRPNSSVWPAYAFTQSAWFAPLRNPSNFTRIFATFEFLSISIYYQLLKNVEHKSKIKNLQDTNKLVKLVSLVPEGVIPVANLKGKLITLLQYWDLLSMLITDISFVLIVLGLLTYL
partner: B1 partner

Variants of: B1
Settings: with get3_yeast GET3, Q12154

Row | Variant | effect of a mutation on the interaction
1 | MHWAAAVAIFFIVVTKFLQYTNKYHEKWISKFAPGNELSKKYLAKVKERHELKEFNNSISAQDNYAKWTKNNEKLDSLDKEINNLKDEIQSENKAFQAHLHKLRLLALTVPFFVFKIMYGKTPVYKLSSSTSTLFPTFVSGVWSQGWLYVLLHPLRTISQKWHIMEGKFGASKFDDMALQSVSLGIWVWALMNVINGVEFIVKQLFLTPKMEAPASVETQEEKALDAVDDAIILD [R73E] | disrupting interaction

Variants of: B2
Settings: with get3_yeast GET3, Q12154

Row | Variant | effect of a mutation on the interaction
2 | MSELTEAEKRRLLREREQKKFSNGGASSRLNKITGQASSHLNAESPLDAPSAAKTTPPASVHSATPDIKEDSNVAPQLDLLKQLAAMQGQGTGKSTPQDSSTPDLLSLLSSMNTGMPSAEGTPSFGQAAPAAPINQAALDYHDYLLNRLKAWTILVKWVFFLLPYLYLITRPNSSVWPAYAFTQSAWFAPLRNPSNFTRIFATFEFLSISIYYQLLKNVEHKSKIKNLQDTNKLVKLVSLVPEGVIPVANLKGKLITLLQYWDLLSMLITDISFVLIVLGLLTYL [R17E] | disrupting interaction
